± gives the standard deviation of the averaged measurements.
B1: library; a variant is named by its letters at N, in order (parent)
chain: GCUGUCACCGGUGCUUGGUACGUUAUAUUCAGCCGGUCUGAUGAGUCUNNNNNNAGACGAAACAGC

How the values were obtained:
(6R,S)-folinic acid [1] = variants of: B1; assay: FACS-Seq fitted mean relative fluorescence mCherry/BFP without ligand (log10 relative fluorescence); HEK293T overexpressing SLC46A1; higher = higher reporter protein expression; details: without (6R,S)-folinic acid; ligand present: no
Method in brief: (§1)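 The ribozyme switch sat in an mCherry reporter, delivered by lentivirus into HEK293T libraries along with an EF1α-BFP marker. Enriched cells were incubated 48 h with or without ligand, sorted into 6 bins by mCherry/BFP, and bin genomic DNA was PCR-amplified, barcoded and MiSeq-sequenced. Fluorescence equals the fitted normal mean of the bin counts after normalization. Those log10(mCherry/BFP) means were scaled to five spiked-in control ribozymes.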

(6R,S)-folinic acid [2] = variants of: B1; assay: normalized RNA/DNA level without ligand (relative to sTRSVctl = 100) (log10 (% of sTRSVctl)); HEK293T overexpressing SLC46A1; higher = less ribozyme self-cleavage, higher mRNA level; details: without (6R,S)-folinic acid; ligand present: no
Procedure: (§2)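 Hammerhead (sTRSV) ribozyme switch libraries with a ligand aptamer grafted on stem I and a randomized N4-6 loop II, cloned into the 3' UTR of mCherry and transiently transfected into HEK293T cells; RNA-Seq 72 h post transfection with ligand added 1 h before transfection; RNA read count / plasmid DNA read count normalized to the non-cleaving sTRSVctl (x100), log10; sequences with >100 DNA reads. FACS-Seq: lentiviral library sorted into 6 bins after 48 h ligand, log-normal fit mean of mCherry/BFP scaled to controls. Printed sequences are partial switch sequences.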

(6R,S)-folinic acid [3] = variants of: B1; assay: FACS-Seq fitted mean relative fluorescence mCherry/BFP with ligand (log10 relative fluorescence); HEK293T overexpressing SLC46A1; ligand concentration (+) FACS-Seq: 6 mM; higher = higher reporter protein expression; details: with (6R,S)-folinic acid; ligand present: yes
Method in brief: as §1

(6R,S)-folinic acid [4] = variants of: B1; assay: normalized RNA/DNA level with ligand (relative to sTRSVctl = 100) (log10 (% of sTRSVctl)); HEK293T overexpressing SLC46A1; ligand concentration (+) RNA-Seq: 6 mM; higher = less ribozyme self-cleavage, higher mRNA level; details: with (6R,S)-folinic acid; ligand present: yes
Procedure: as §2

| Variant | FACS-Seq fitted mean (log10) ((6R,S)-folinic acid [1]) | normalized RNA/DNA level without ligand (log10) ((6R,S)-folinic acid [2]) | FACS-Seq fitted mean (log10) ((6R,S)-folinic acid [3]) | normalized RNA/DNA level with ligand (log10) ((6R,S)-folinic acid [4]) |
| --- | --- | --- | --- | --- |
| GAUGGU | 0.536 ± 0.091 | 2.004 ± 0.0039 | 0.622 ± 0.045 | 2.02 ± 0.049 |
| GAUGGC | 0.227 ± 0.13 | 1.967 ± 0.019 | 0.542 ± 0.2 | 2.01 ± 0.021 |
| CCACAA | 0.496 ± 0.0082 | 1.969 ± 0.0044 | 0.422 ± 0.22 | 1.96 ± 0.016 |
| UAUGGC | -0.0353 ± 0.039 | 1.948 ± 0.014 | -0.149 ± 0.14 | 2 ± 0.032 |
| UAUGGG | 0.1983 ± 0.0014 | 1.54 ± 0.028 | 0.816 ± 0.12 | 1.91 ± 0.045 |
| UAUGGA | 0.416 ± 0.029 | 1.828 ± 0.012 | 0.472 ± 0.013 | 1.98 ± 0.021 |
| ACAAUA | 0.486 ± 0.011 | 1.981 ± 0.0063 | 0.509 ± 0.16 | 2.004 ± 0.02 |
| ACAAUG | 0.173 ± 0.021 | 1.96 ± 0.02 | 0.372 ± 0.11 | 2.03 ± 0.033 |
| AAUGCG | 0.217 ± 0.13 | 1.839 ± 0.018 | 0.405 ± 0.11 | 2 ± 0.03 |
| UAUGUG | 0.257 ± 0.25 | 1.65 ± 0.024 | 0.638 ± 0.018 | 1.944 ± 0.019 |
| UCAAAA | 0.0137 ± 0.17 | 1.944 ± 0.012 | 0.0601 ± 0.04 | 1.99 ± 0.046 |
| UCAAAC | 0.446 ± 0.11 | 2.01 ± 0.0051 | 0.621 ± 0.079 | 2.01 ± 0.056 |
| UAUUUC | 0.248 ± 0.026 | 2.029 ± 0.0031 | 0.208 ± 0.2 | 2.01 ± 0.054 |
| UAUUUU | 0.372 ± 0.078 | 2.006 ± 0.0046 | 0.24 ± 0.13 | 2.02 ± 0.058 |
| UAUUUG | 0.00681 ± 0.018 | 1.82 ± 0.02 | 0.373 ± 0.0088 | 1.976 ± 0.017 |
| ACAAAC | 0.439 ± 0.018 | 2.03 ± 0.025 | 0.419 ± 0.038 | 2.02 ± 0.043 |
| ACAAAG | 0.424 ± 0.017 | 1.929 ± 0.019 | 0.459 ± 0.23 | 2.01 ± 0.042 |
| ACACGA | 0.206 ± 0.039 | 1.9971 ± 0.00061 | 0.242 ± 0.26 | 2.02 ± 0.059 |

| Variant | FACS-Seq fitted mean (log10) ((6R,S)-folinic acid [1]) | normalized RNA/DNA level without ligand (log10) ((6R,S)-folinic acid [2]) | FACS-Seq fitted mean (log10) ((6R,S)-folinic acid [3]) | normalized RNA/DNA level with ligand (log10) ((6R,S)-folinic acid [4]) |
| --- | --- | --- | --- | --- |
| CAUUAC | 0.716 ± 0.11 | 1.984 ± 0.003 | 0.484 ± 0.06 | 1.98 ± 0.036 |
| CAUUAU | 0.4935 ± 0.0016 | 1.976 ± 0.011 | 0.36 ± 0.13 | 1.98 ± 0.056 |
| GCACAA | -0.45 ± 0.18 | 1.9848 ± 8e-05 | -1.15 ± 0.17 | 2 ± 0.039 |
| GCACAC | -0.179 ± 0.1 | 1.966 ± 0.0048 | -0.0397 ± 0.2 | 2 ± 0.037 |
| GAUGUG | 0.409 ± 0.09 | 1.889 ± 0.0086 | 0.576 ± 0.27 | 2.02 ± 0.021 |
| GAUGUA | 0.1 ± 0.0045 | 1.937 ± 0.004 | 0.322 ± 0.11 | 2.001 ± 0.02 |
| GAUGUC | 0.311 ± 0.066 | 2.021 ± 0.013 | 0.392 ± 0.21 | 1.991 ± 0.014 |
| GAUGUU | 0.317 ± 0.026 | 1.976 ± 0.0069 | 0.463 ± 0.066 | 2.01 ± 0.031 |
| ACACCA | 0.658 ± 0.22 | 2.035 ± 0.0068 | 0.462 ± 0.1 | 2.03 ± 0.022 |
| ACACCG | 0.142 ± 0.015 | 1.99 ± 0.022 | 0.198 ± 0.14 | 2.01 ± 0.022 |
| UCAAUG | 0.183 ± 0.076 | 1.814 ± 0.0085 | 0.195 ± 0.15 | 2 ± 0.037 |
| GCAACU | 0.431 ± 0.019 | 2.0623 ± 0.00038 | 0.667 ± 0.22 | 2.06 ± 0.029 |
| AAUUUU | 0.217 ± 0.14 | 2.04 ± 0.029 | 0.309 ± 0.3 | 2.01 ± 0.025 |
| AAUUUG | 0.443 ± 0.039 | 1.952 ± 0.016 | 0.374 ± 0.038 | 2.02 ± 0.024 |
| GAUUAG | -0.00141 ± 0.0098 | 1.95 ± 0.0067 | -0.175 ± 0.038 | 2.005 ± 0.013 |
| GAUUAA | 0.2664 ± 0.0013 | 1.977 ± 0.0031 | 0.453 ± 0.16 | 2 ± 0.028 |
| GAUUAU | 0.371 ± 0.018 | 1.97 ± 0.013 | 0.305 ± 0.0094 | 1.992 ± 0.012 |
| AAUGUC | -0.0892 ± 0.053 | 2.075 ± 0.01 | -0.24 ± 0.095 | 2.037 ± 0.0021 |
